Test results from paper PMC9482650, “Quantitative fragmentomics allow affinity mapping of interactomes” (Nature Communications, 2022).
Blank lines part the entries; values can stand above or below the binder they belong to.

Experiments:
Experiment in all cases: holdup assay
Parameters in all cases: key: below the threshold = too weak to quantify, mostly under pKd 3.1 to 4
[1] = target: AHNAK1, Q09666
[2] = target: T1, ARHGEF11, O15085
T1 sequence (O15085 42-136, limits assumed, looked up): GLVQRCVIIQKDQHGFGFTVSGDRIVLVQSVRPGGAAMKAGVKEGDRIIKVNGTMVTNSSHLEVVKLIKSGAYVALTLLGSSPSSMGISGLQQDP

[3] = target: T2, DFNB31_2, Q9P202
T2 sequence (Q9P202 274-371, limits assumed, looked up): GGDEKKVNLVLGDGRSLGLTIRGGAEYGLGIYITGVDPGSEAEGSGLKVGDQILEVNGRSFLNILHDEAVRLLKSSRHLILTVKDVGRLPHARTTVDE

[4] = target: GIPC2, Q8TF65
GIPC2, Q8TF65, sequence (Q8TF65 112-203): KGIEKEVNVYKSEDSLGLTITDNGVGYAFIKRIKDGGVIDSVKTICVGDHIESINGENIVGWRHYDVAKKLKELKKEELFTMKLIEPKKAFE

[5] = target: GORASP1, Q9BQQ3
GORASP1, Q9BQQ3, sequence (Q9BQQ3 1-208): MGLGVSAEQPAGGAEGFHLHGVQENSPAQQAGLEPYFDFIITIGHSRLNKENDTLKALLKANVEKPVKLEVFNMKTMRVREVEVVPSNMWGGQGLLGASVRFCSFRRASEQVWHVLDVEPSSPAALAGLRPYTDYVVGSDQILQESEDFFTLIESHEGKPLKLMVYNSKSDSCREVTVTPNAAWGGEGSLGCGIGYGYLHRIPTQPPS

[6] = target: GRID2IP_2, A4D2P6
GRID2IP_2, A4D2P6, sequence (A4D2P6 272-370): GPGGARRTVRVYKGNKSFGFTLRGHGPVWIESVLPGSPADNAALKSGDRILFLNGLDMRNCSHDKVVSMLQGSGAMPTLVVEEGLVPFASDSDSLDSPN

[7] = target: T3, GRIP1_2, Q9Y3R0
T3 sequence (Q9Y3R0 145-248, limits assumed, looked up): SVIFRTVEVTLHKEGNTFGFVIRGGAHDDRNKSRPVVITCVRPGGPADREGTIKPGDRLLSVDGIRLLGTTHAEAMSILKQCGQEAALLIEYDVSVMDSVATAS

[8] = target: T4, GRIP1_3, Q9Y3R0
T4 sequence (Q9Y3R0 247-346, limits assumed, looked up): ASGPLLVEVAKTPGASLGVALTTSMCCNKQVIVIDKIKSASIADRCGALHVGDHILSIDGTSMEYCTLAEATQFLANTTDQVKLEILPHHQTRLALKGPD

[9] = target: T5, GRIP1_5, Q9Y3R0
T5 sequence (Q9Y3R0 568-668, limits assumed, looked up): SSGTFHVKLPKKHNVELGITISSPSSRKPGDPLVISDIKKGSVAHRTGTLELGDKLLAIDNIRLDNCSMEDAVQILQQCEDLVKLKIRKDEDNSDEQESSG

[10] = target: T6, GRIP1_7, Q9Y3R0
T6 sequence (Q9Y3R0 999-1096, limits assumed, looked up): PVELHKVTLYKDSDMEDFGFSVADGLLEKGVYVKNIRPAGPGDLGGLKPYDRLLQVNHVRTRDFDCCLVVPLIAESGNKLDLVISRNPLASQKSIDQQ

[11] = target: GRIP2_6, Q9C0E4
GRIP2_6, Q9C0E4, sequence (Q9C0E4 648-740): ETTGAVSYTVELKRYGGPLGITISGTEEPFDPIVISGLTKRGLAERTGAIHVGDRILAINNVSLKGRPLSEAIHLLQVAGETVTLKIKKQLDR

[12] = target: GRIP2_7, Q9C0E4
GRIP2_7, Q9C0E4, sequence (Q9C0E4 934-1023): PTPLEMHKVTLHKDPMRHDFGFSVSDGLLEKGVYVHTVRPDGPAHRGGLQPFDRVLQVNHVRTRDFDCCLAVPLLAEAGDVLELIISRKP

[13] = target: Inadl_10, Q8NI35
Inadl_10, Q8NI35, sequence (Q8NI35 1673-1763): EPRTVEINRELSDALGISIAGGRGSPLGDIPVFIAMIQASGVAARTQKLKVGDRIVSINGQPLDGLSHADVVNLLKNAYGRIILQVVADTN

[14] = target: Inadl_2, Q8NI35
Inadl_2, Q8NI35, sequence (Q8NI35 238-335): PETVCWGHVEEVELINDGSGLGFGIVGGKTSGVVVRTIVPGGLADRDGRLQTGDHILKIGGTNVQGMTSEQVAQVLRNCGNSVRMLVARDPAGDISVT

[15] = target: Inadl_3, Q8NI35
Inadl_3, Q8NI35, sequence (Q8NI35 359-469): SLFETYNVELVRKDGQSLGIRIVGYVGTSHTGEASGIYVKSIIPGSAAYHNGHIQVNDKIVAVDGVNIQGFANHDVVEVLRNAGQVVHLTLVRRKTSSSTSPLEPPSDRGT

[16] = target: Inadl_6, Q8NI35
Inadl_6, Q8NI35, sequence (Q8NI35 1058-1167): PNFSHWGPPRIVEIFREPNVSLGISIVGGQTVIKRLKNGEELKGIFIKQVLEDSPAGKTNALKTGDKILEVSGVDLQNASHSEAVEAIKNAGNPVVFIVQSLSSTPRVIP

[17] = target: Inadl_8, Q8NI35
Inadl_8, Q8NI35, sequence (Q8NI35 1425-1530): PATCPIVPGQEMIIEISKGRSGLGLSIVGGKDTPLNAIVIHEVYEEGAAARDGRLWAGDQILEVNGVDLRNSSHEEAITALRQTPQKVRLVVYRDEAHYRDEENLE

[18] = target: LIMK2, P53671
LIMK2, P53671, sequence (P53671 143-248): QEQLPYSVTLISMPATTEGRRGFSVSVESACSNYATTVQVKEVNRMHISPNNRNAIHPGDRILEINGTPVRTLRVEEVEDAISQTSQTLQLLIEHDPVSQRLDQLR

[19] = target: MAGI1_2, Q96QZ7
MAGI1_2, Q96QZ7, sequence (Q96QZ7 456-580): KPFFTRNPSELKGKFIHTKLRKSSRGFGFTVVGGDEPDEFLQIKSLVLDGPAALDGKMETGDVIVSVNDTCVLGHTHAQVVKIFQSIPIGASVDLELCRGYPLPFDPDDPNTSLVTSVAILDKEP

[20] = target: MAGI2_5, Q86UL8
MAGI2_5, Q86UL8, sequence (Q86UL8 915-1017): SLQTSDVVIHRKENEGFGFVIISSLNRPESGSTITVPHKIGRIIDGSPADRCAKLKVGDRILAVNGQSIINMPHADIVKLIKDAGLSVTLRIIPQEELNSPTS

[21] = target: MAST2, Q6P0Q8
MAST2, Q6P0Q8, sequence (Q6P0Q8 1099-1202): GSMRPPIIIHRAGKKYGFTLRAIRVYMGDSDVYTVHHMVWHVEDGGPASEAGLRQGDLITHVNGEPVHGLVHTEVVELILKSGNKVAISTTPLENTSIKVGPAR

[22] = target: T7, MPP6, Q9NZW5
T7 sequence (Q9NZW5 125-219, limits assumed, looked up): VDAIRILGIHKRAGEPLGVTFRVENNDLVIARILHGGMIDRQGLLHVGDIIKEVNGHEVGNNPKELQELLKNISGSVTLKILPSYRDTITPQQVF

[23] = target: T8, PCLO, Q9Y6V0
T8 sequence (Q9Y6V0 4491-4600, limits assumed, looked up): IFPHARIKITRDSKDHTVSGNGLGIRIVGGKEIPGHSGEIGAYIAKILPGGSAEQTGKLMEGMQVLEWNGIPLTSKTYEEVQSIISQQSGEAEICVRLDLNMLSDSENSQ

[24] = target: T9, PDZD2_2, O15018
T9 sequence (O15018 329-429, limits assumed, looked up): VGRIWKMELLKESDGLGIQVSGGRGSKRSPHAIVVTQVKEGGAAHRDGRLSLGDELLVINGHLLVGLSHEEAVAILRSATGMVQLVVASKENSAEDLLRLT

[25] = target: PDZRN4_1, Q6ZMN7
PDZRN4_1, Q6ZMN7, sequence (Q6ZMN7 213-318): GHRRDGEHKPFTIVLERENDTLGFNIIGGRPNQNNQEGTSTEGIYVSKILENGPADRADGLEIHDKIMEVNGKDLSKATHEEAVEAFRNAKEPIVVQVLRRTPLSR

[26] = target: T10, RAPGEF6, Q8TEU7
T10 sequence (Q8TEU7 525-625, limits assumed, looked up): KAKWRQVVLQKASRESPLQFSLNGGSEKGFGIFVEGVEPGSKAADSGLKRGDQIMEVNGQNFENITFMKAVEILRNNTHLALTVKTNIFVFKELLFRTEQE

[27] = target: SNX27, Q96L92
[28] = target: TJP2_1, Q9UDY2
TJP2_1, Q9UDY2, sequence (Q9UDY2 24-128): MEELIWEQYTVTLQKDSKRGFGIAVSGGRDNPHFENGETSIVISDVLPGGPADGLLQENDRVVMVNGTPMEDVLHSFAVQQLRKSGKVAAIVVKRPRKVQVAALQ

[29] = plain residues with an end cap or a label only (N-terminal biotin on a linker: ado-ado)
[30] = modified: phospho on S at position -3 from the C-terminal residue

AHNAK1, Q09666, sequence (Q09666 4-100): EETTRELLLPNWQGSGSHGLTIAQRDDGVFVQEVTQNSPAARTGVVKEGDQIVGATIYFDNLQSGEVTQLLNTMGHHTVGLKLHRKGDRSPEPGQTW

pKd [1, 30]: below the threshold
pKd [2, 30]: below the threshold
pKd [3, 30]: below the threshold
pKd [4, 30]: below the threshold
pKd [5, 30]: below the threshold
pKd [6, 30]: below the threshold
pKd [7, 30]: below the threshold
pKd [8, 30]: below the threshold
pKd [9, 30]: below the threshold
pKd [10, 30]: 3.68
pKd [11, 30]: below the threshold
pKd [12, 30]: below the threshold
pKd [13, 30]: below the threshold
pKd [14, 30]: below the threshold
pKd [15, 30]: below the threshold
pKd [16, 30]: below the threshold
pKd [17, 30]: below the threshold
pKd [18, 30]: below the threshold
pKd [19, 30]: below the threshold
pKd [20, 30]: below the threshold
pKd [21, 30]: 4.21
pKd [22, 30]: below the threshold
pKd [23, 30]: below the threshold
pKd [24, 30]: below the threshold
pKd [25, 30]: 3.98
pKd [26, 30]: below the threshold
pKd [27, 30]: 4.1
pKd [28, 30]: 3.57
B2: RPS6KA1_-3P, Q15418 (peptide)
chain: RRVRKLPSTTL

pKd [1, 29]: below the threshold
pKd [2, 29]: below the threshold
pKd [3, 29]: below the threshold
pKd [4, 29]: below the threshold
pKd [5, 29]: 3.76
pKd [6, 29]: below the threshold
pKd [7, 29]: below the threshold
pKd [8, 29]: below the threshold
pKd [9, 29]: below the threshold
pKd [10, 29]: below the threshold
pKd [11, 29]: 3.47
pKd [12, 29]: below the threshold
pKd [13, 29]: below the threshold
pKd [14, 29]: 4.27
pKd [15, 29]: 5.08
pKd [16, 29]: below the threshold
pKd [17, 29]: below the threshold
pKd [18, 29]: below the threshold
pKd [19, 29]: below the threshold
pKd [20, 29]: below the threshold
pKd [21, 29]: 3.73
pKd [22, 29]: below the threshold
pKd [23, 29]: below the threshold
pKd [24, 29]: 3.77
pKd [25, 29]: below the threshold
pKd [26, 29]: below the threshold
pKd [27, 29]: below the threshold
pKd [28, 29]: below the threshold
B5: AMOTL1, Q8IY63 (peptide)
chain: PDGEMMEVLI

More lines, now with the values behind:

B1: TUBB4B, P68371 (peptide)
chain: FEEEAEEEVA
pKd [1, 29]: below the threshold
pKd [2, 29]: below the threshold
pKd [3, 29]: below the threshold
pKd [4, 29]: below the threshold
pKd [5, 29]: below the threshold
pKd [6, 29]: below the threshold
pKd [7, 29]: below the threshold
pKd [8, 29]: below the threshold
pKd [9, 29]: below the threshold
pKd [10, 29]: below the threshold
pKd [11, 29]: below the threshold
pKd [12, 29]: below the threshold
pKd [13, 29]: below the threshold
pKd [14, 29]: below the threshold
pKd [15, 29]: below the threshold
pKd [16, 29]: below the threshold
pKd [17, 29]: below the threshold
pKd [18, 29]: below the threshold
pKd [19, 29]: below the threshold
pKd [20, 29]: below the threshold
pKd [21, 29]: below the threshold
pKd [22, 29]: below the threshold
pKd [23, 29]: below the threshold
pKd [24, 29]: below the threshold
pKd [25, 29]: below the threshold
pKd [26, 29]: below the threshold
pKd [27, 29]: below the threshold
pKd [28, 29]: below the threshold

B3: GLA, P06280 (peptide)
chain: TMQMSLKDLL
pKd [1, 29]: below the threshold
pKd [2, 29]: 3.99
pKd [3, 29]: below the threshold
pKd [4, 29]: 3.62
pKd [5, 29]: 3.61
pKd [6, 29]: 3.69
pKd [7, 29]: 3.5
pKd [8, 29]: below the threshold
pKd [9, 29]: 3.51
pKd [10, 29]: below the threshold
pKd [11, 29]: below the threshold
pKd [12, 29]: below the threshold
pKd [13, 29]: below the threshold
pKd [14, 29]: below the threshold
pKd [15, 29]: below the threshold
pKd [16, 29]: below the threshold
pKd [17, 29]: below the threshold
pKd [18, 29]: below the threshold
pKd [19, 29]: below the threshold
pKd [20, 29]: below the threshold
pKd [21, 29]: 4.19
pKd [22, 29]: below the threshold
pKd [23, 29]: below the threshold
pKd [24, 29]: below the threshold
pKd [25, 29]: below the threshold
pKd [26, 29]: 3.69
pKd [27, 29]: below the threshold
pKd [28, 29]: below the threshold

B4: GRIP1, Q9Y3R0 (peptide)
chain: LETREPTNTL
pKd [1, 29]: below the threshold
pKd [2, 29]: below the threshold
pKd [3, 29]: below the threshold
pKd [4, 29]: below the threshold
pKd [5, 29]: below the threshold
pKd [6, 29]: below the threshold
pKd [7, 29]: below the threshold
pKd [8, 29]: below the threshold
pKd [9, 29]: below the threshold
pKd [10, 29]: below the threshold
pKd [11, 29]: below the threshold
pKd [12, 29]: below the threshold
pKd [13, 29]: below the threshold
pKd [14, 29]: below the threshold
pKd [15, 29]: below the threshold
pKd [16, 29]: below the threshold
pKd [17, 29]: below the threshold
pKd [18, 29]: below the threshold
pKd [19, 29]: below the threshold
pKd [20, 29]: below the threshold
pKd [21, 29]: 3.92
pKd [22, 29]: 3.61
pKd [23, 29]: below the threshold
pKd [24, 29]: below the threshold
pKd [25, 29]: below the threshold
pKd [26, 29]: below the threshold
pKd [27, 29]: below the threshold
pKd [28, 29]: below the threshold
